These results are taken from the nanobody polyreactivity screen of Harvey et al. (2022).

The data set in a line: yeast display, Sf9 membrane polyspecificity reagent, FACS + sequencing; frameworks hold sequencing errors. The method in brief: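 Genes from sorted yeast were amplified by colony PCR, read by MiSeq 2 × 250 sequencing and filtered on CDR length. These cells carried a synthetic nanobody library in Saccharomyces cerevisiae BJ5465 and were sorted by FACS into low and high (top ~1%) gates on anti-HA and streptavidin fluorescence. Polyreactivity is labelled according to the gate of origin.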
With “QVQLVESGVGLVQAGGSLRLSCAASGFTFGDNAMGWYRQAPGKERELVADITSSGSTNYADSVKGRFTISRDNAKNTVYLQMNSLKPEDTAVYYCNAVDSVDAPVYKDLGSEYDSWGQGTQVTVSS”, the “polyreactivity (PSR sort gate)” value was “low polyreactivity”. Under “QVQLVESGVGLVQAGGSLRLSCAASGFTFPSYTMGWYRQAPGKERELVAAITSGGITYYADSVKGRFTISRDNANYTVYLQMNSLKPEDTAVYYCAVVNFRTSVYYPYRTMDYWGQGTQVTVSS” stands “high polyreactivity”; under “QVQLVESGVGLVQAGGSLRLSCAASGGTFGYYVMGWYRQATGKESELVAAITSGGSTKYADSVKGRFTISRDNAKNTVYLQMNSLNPEDTAVYYCAADVTRREPYQSYDFWGQGTQVTVSS”, “low polyreactivity”.

Regarding “QVQLVESGVGLVQAGGSLRLSCAASGIIFGFYAMGWYRQAPGKERELVAAISVSGGSTNYADSVKGRFTISRDNAKNTVYLQMNSLKPEDTAVYYCAARVRDSLVYGGWDDYWGQGTQVTVSS”, the “polyreactivity (PSR sort gate)” value was “high polyreactivity”. Under “QVQLVESGVGLVQAGGSLRLSCAASGITFNVNAMGWYRQAPGKERELVARITTSGGSTSYADSVKGRFTISRDNAKNTVYLQMNSLKPEDTAVYYCAADRARYYSEYDYWGQGTQVTVSS” stands “low polyreactivity”; under “QVQLVESGVGLVQAGGSLRLSCAASGLIFPYYAMGWYRQAPGKERELVAAITSGSGTYYADSVKGRFTISRDNGKNTVYIQMNSLKPEDTAVYYCNAYILFWEYGYWGQGTQVTVSS”, “high polyreactivity”.

In the case of “QVQLVESGVGLVQAGGSLRLSCAASGLIIYAYVMGWYRQAPGKERELVATISRSGARTHYADSVKGRFTISRDNAKNTVYLQMNSLKPEDTAVYYCAADVYLSSYEKYGYWGQGTQVTVSS”, the “polyreactivity (PSR sort gate)” value is recorded as “high polyreactivity”.

For the sequence “QVQLVESGVGLVQAGGSLRLSCAASGLTFRPNAMGWYRQAPGKERELVASISFSGGSTYYADSVKGRFTISRDNAKNTVYLQMNSLKPEDTAVYYCAADVATTHELDYWGQGTQVTVSS”, the “polyreactivity (PSR sort gate)” value was “high polyreactivity”. As to “QVQLVESGVGLVQAGGSLRLSCAASGLTFRYYAMGWYRQAPGKERELVAAITRRGSTYYADSVKGRFTISRDNAKNTVYLQMISLKPEVTAVYYCATVTGFHSSPLRDLDYWGQGTQVTVSS”, the “polyreactivity (PSR sort gate)” value is reported as “high polyreactivity”.

As for “QVQLVESGVGLVQAGGSLRLSCAASGLTYYGYVMGWYRQAPGKERELVAAISQSGGTTYYADSVNGRFTISRDNAKNTFYLHMNSLTPEDTAVYYCAADHFYILIFLYGKLTLDYWGQGTQVTVSS”, the “polyreactivity (PSR sort gate)” value is listed as “high polyreactivity”. Under “QVQLVESGVGLVQAGGSLRLSCAASGRIFAFYTMGWYRQAPGKERELVAASSTRGDSTYYADSVKGRFTISRDNAKNTVYLQMNSLKAEDTAVYYCAKSRQTSGRVRFDYWGQGTQVTVSS” stands “low polyreactivity”. Under “QVQLVESGVGLVQAGGSLRLSCAASGRIFAHNAMGWYRQAPGKERELVAAISTGGSTNYADSVKGRFTISRDNAKNTVYLQMNSLKPEDTAVYYCARDAYLPRIADGDGRYELVDYWGQGTQVTVSS” stands “low polyreactivity”; under “QVQLVESGVGLVQAGGSLRLSCAASGRIFGYYTMGWYRQAPGKERELVADSSGGNTSYADSVKGRFTISRDNAKNTVYLQMNSLKPEDTAGYYCAKDLPGAWRGDDYWGQGTQVTVSS”, “low polyreactivity”; under “QVQLVESGVGLVQAGGSLRLSCAASGRIFIKYAMGWYRQAPGKEREFVAAISGRGGSTYYADSVKGRFTISRDNAKNTVYLQMNSLKPEDTAFYYCAKRFFYSGTAAGMYYWGQGTQVTVSS”, “high polyreactivity”. “QVQLVESGVGLVQAGGSLRLSCAASGRIFSFYAMGWYRQAPGKERELVAAITYTDGSTYAVSVKGRFTISRDYAKNTVYLQTNSLKPEDTAVYYCATRYRWTPYDYWGQGTQVTVSS”: the “polyreactivity (PSR sort gate)” value is listed as “low polyreactivity”. Next, “QVQLVESGVGLVQAGGSLRLSCAASGRIFTFNVMGWYRQAPGKERELVAAITFSGGSTYYADSVKGRFTISRDNAKNTVYLQMNRLKTEDTAVYFCAAKISLGDDYWGQGTQVTVSS”: “low polyreactivity”.
